The series can be described thus: yeast display, Sf9 membrane polyspecificity reagent, FACS + sequencing; frameworks hold sequencing errors. The gist of the method:
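Galactose-induced (36–48 hours) yeast carrying a synthetic nanobody display library were exposed to 10% biotinylated, detergent-solubilized Sf9 membrane reagent at 4 °C for 1 hour. FACS followed streptavidin microbead enrichment, using low and high (top ~1%) gates for expression (anti-HA) and reagent binding (streptavidin). Colony PCR, MiSeq 2 × 250 sequencing and CDR-length filtering followed. Labels for polyreactivity reflect the gate of origin.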
For “QVQLVESGGGLVQAGGSLRLSCAASGLTFQKYAMGWYRQAPGKERELVAAISRGGDTYYADSVKGRFTISRDNAKNTVYLQMNSLKPEDTAVYYCAASNYLYRYSHYGYWGQGTQVTVSS”, the “polyreactivity (PSR sort gate)” value is recorded as “high polyreactivity”. Take “QVQLVESGGGLVQAGGSLRLSCAASGLTFQLYTMGWYRQAPGKERELVAAISRSGTRTYYADSVKGRFTISRDNAQNTVYLQMNSLKPEDTAVYYCAARTDGYRNNYWGQATQVTVSS”: the “polyreactivity (PSR sort gate)” value is on record as “high polyreactivity”. With “QVQLVESGGGLVQAGGSLRLSCAASGLTFQNNAMGWYRQAPGKERELVAVITRIGGSTYYADSVKGRFTISRDNAKNTVYLQMNSLKPEDTAVYYCAAGYRTRRRLHDYWGQGTQVTVSS” the entry was “high polyreactivity”; with “QVQLVESGGGLVQAGGSLRLSCAASGLTFQTNAMGWYRQAPGKERELVAAISRRGSSTYYADSVKGRFTISRDNAKNTVYLQMNSLKPEDTAVYYCNAVRFLFIYPRYDYWGQGTQVTVSS”, “high polyreactivity”. With “QVQLVESGGGLVQAGGSLRLSCAASGLTFQYNAMGWYRQAPGKERELVAVISWSGGSTYYADSVKGRFTISRDNAMNTVYLQMNSLIPEDTAVYYCNAVGFVWYFDVYSYFTEFKYDYWGQGTQVTVSS” the entry was “low polyreactivity”; with “QVQLVESGGGLVQAGGSLRLSCAASGLTFRDNAMGRYRQAPGKERELVATINSGGSTDYADSVKGRFTISRDNAKNTVYLQMNSLKPEDTAVYYCAVSREYYDRGWYSIFYWYVYWGQGTQVTVSS”, “low polyreactivity”. With “QVQLVESGGGLVQAGGSLRLSCAASGLTFRIYAMGWYRQAPGKERQLVAAISYRGGSTYYADSVKGRFTISRDNAKNTVYLQMNSLKPEDTAVYYCAAGFVLNGIRYDYWGQGTQVTVSS” the entry was “high polyreactivity”; with “QVQLVESGGGLVQAGGSLRLSCAASGLTFRSYTMGWYRQAPGKERELVAAISSGGSTYYADSVKGRFTISRDNAKNTVYLQMNSLKPEDTAVYYCAAPRGHGKYYSWGQGTQVTVSS”, “high polyreactivity”; with “QVQLVESGGGLVQAGGSLRLSCAASGLTFRVYAMVWYRQAPGKERELVAAISKRGGSTYYADSVKGRFTISRDNAKKTVYLQMNSLKPEENAVYSCAADSDNSVRLAGSGGNYCGQGTQVTVSS”, “high polyreactivity”. Take “QVQLVESGGGLVQAGGSLRLSCAASGLTFRYYAMGWYRQAPGKERELVAAITRRGSTYYADSVKGRFTISRDNAKNSVYLQMNSLKPEDTAVYYGATVTGFHSSPLRDLDYWGQGTQVTVSS”: the “polyreactivity (PSR sort gate)” value is on record as “high polyreactivity”. With “QVQLVESGGGLVQAGGSLRLSCAASGLTFRYYTMGWYRQAPGKERELVASINIRGGSTYYADSVKGRFTISRDNAKNTVYLQMNSLKAEDTSVYYCNNRYGFSFGYWGQGTQVTVSS” the entry was “high polyreactivity”; with “QVQLVESGGGLVQAGGSLRLSCAASGLTFSAYAMGWYRQAPGKERELVAAITTGGGRTYYADSVKGRFTISRDNAKNTVYLQMNSLKPEDTAVYYCNTLRAYWTYHFYGAVRDGYDYWGQGTKVTVSS”, “low polyreactivity”. As to “QVQLVESGGGLVQAGGSLRLSCAASGLTFSDYAMGWYRQAPGKERAFVAAITRNGGSTRYADSVKGRFTISRDNAKITVYLQMHSLKPEDTAVYYCATDVGFGRKQRPHRPGYGYWGQGTQVTVSS”, the “polyreactivity (PSR sort gate)” value was “low polyreactivity”.

Regarding “QVQLVESGGGLVQAGGSLRLSCAASGLTFSGNVMGWYRQAPGKERELVAAIDRSGGSTYYADSVKGRFTISRDNAKNTVYLQMNSLKPEDTAVYYCAVSSYPNHSRSWDDYWGQGTQVTVSS”, the “polyreactivity (PSR sort gate)” value is on record as “low polyreactivity”. In the case of “QVQLVESGGGLVQAGGSLRLSCAASGLTFSKYVMGWYRQAPGKERELVAAITWSGGRTYYADSVKGRFTISRDNAKNTVYLLMNSLKPEDTAVYYCNRKLKGLGYEYDYWGQGTQVTVSS” it was “high polyreactivity”; in that of “QVQLVESGGGLVQAGGSLRLSCAASGLTFSKYVMGWYRQAPGKERELVAAITWSGGRTYYADSVKGRFTISRDNAKNTVYLQMNSLKPEDTAVYYCNRKLKGLGYEYDYWGQGTQVTVSS”, “high polyreactivity”; in that of “QVQLVESGGGLVQAGGSLRLSCAASGLTFSLNAMGGYRQAPGKERELVAAIRGSGGSTYYADSVKGRFTISRDNAKNTVYLQMNSLKPEDTAVYYCNADQLVWQRYGVLYEYDYWGQGTQVTVSS”, “high polyreactivity”. In the case of “QVQLVESGGGLVQAGGSLRLSCAASGLTFSQNAMGWYRQAPGKERELVAAITRSGSTTHYADSVKGRFTISRDNAKNTVYLQMNSLKPEDTAVYYCAAVAFLTRYYYWGQGTQVTVSS” it was “high polyreactivity”; in that of “QVQLVESGGGLVQAGGSLRLSCAASGLTFSRYAMGWYRQAPGKERELVAAITWSGSSTYYADSVKGRFTISRDNAKNTVYLQMNSLKPEDTAVYYCAARYGYSRGPYYRSDYWGQGTQVTVSS”, “high polyreactivity”; in that of “QVQLVESGGGLVQAGGSLRLSCAASGLTFSVYAMGWYRQAPGKERELVAAISYSGDSTYADSVKGRFTISRDNAKNTVYLQMNSLKPEDTAVYYCNARWVRQGYRRWYDYWGQGTQVTVSS”, “low polyreactivity”. Consider “QVQLVESGGGLVQAGGSLRLSCAASGLTFSVYAMGWYRQAPGKERELVAAITRNGGSTYYADSVKGRFTISRDNAKNTVYLQMNSLKTEDTAVYYCAADASSKLYDYWGQGTQVSVSS”, for which the “polyreactivity (PSR sort gate)” value is recorded as “low polyreactivity”.

For the sequence “QVQLVESGGGLVQAGGSLRLSCAASGLTFSWNAMGWYRQAPGKERELVAAISSRGGSTYYADSVKWRFKISRDNAKNTVYLQMNSLKPEDTAVYYCNAHGRRFLGDYGYWGQGTQVTVSS”, the “polyreactivity (PSR sort gate)” value was “low polyreactivity”. With “QVQLVESGGGLVQAGGSLRLSCAASGLTFTGYFMGWYRQAPGKERELVAAISYSGSSTYYADSVKGRFTISRDNAKNTVYLQMNSLKQEDTAVYYCAATSHAYYPRYYYWGQGTQVTVSS” the entry was “high polyreactivity”; with “QVQLVESGGGLVQAGGSLRLSCAASGLTFTKYAMGWYRKAPGKEREFVASISWNGGDTYADSVKGRFTISRDNAKNTVYLQMNSLKPEDTAVYYCAARRTQQKVYYWGQGTQVTVSS”, “high polyreactivity”. As for “QVQLVESGGGLVQAGGSLRLSCAASGLTFTSYAMGWSRPAPGKERELVAAIDWSGGRTYYADSVKGRFTISRDNAKNTVYLQMNSLKPEDTAVYYCAAYSRNRALRFNYWGQGTQVTVSS”, the “polyreactivity (PSR sort gate)” value was “high polyreactivity”.

In the case of “QVQLVESGGGLVQAGGSLRLSCAASGLTFTSYAMGWYRQAPGKERELVAAIDWSGGRTYYADSVKGRFTISRDNAKNTVYLQMNSLKPEDTAVYYCYKYRYQWPYRRFDYWGQGTQVTVSS”, the “polyreactivity (PSR sort gate)” value is listed as “high polyreactivity”.

As for “QVQLVESGGGLVQAGGSLRLSCAASGLTFTYYAMGWYRQAPGKERELVAAISSSGSDTYYADSVKGRFTISRDNAKNTVYLQMNSLKPEDTAVYYCAAVLTALSPDFEYEYWGQGTQVTVSS”, the “polyreactivity (PSR sort gate)” value is recorded as “low polyreactivity”.

For “QVQLVESGGGLVQAGGSLRLSCAASGLTFVANAMGWYRQAPGKERELVAAIDYGGGHTYYADSVKGRFTNSRDNAKNTVYLQMNSLKPEDTAVYYCAVGLPHGGRRLYGSWYRFDYWGQGTQVTVSS”, the “polyreactivity (PSR sort gate)” value is given as “low polyreactivity”. With “QVQLVESGGGLVQAGGSLRLSCAASGLTFVDYAMGWYRQAPGKERELVAAITSSGGSITYYADSVKGRFTISRDNAKNTVYLQMNSLKPEDTAVYYCNADYGIYTDSFRGPDYESWGQGTQVTVSS” the entry was “low polyreactivity”; with “QVQLVESGGGLVQAGGSLRLSCAASGLTFVFYAMGWYRQAPGKERELVAAISSSGGSTNYADSVKGRFTISRDNAKNTVYLQMNSLKPEDTAVYYCNAALLGKQYYSNPNYDYWGQGTQVTVSS”, “high polyreactivity”.

The values above are taken from the nanobody polyreactivity screen of Harvey et al. (2022).
